This assay deals with GluA2-TARPγ2 fusion construct (rat GluA2, GT linker, mouse TARPγ2 truncated following M4) (rat | mouse). Kind of assay: cryo-EM structure.

In the case of “GluA2-TARPγ2 fusion construct (rat GluA2, GT linker, mouse TARPγ2 truncated following M4) (receptor)”, the stoichiometry N is 4.

As a reminder, the stoichiometry N is a count of units in the complex or per binding partner.
